Patent US20200353088A1, “PEPTIDE CONJUGATE CGRP RECEPTOR ANTAGONISTS AND METHODS OF PREPARATION AND USES THEREOF” (Auckland UniServices Limited, priority 2017, published 2020)
Where a SMILES comes first, the peptide text is derived from it. Where no end group is shown, it is not given here. The star is where a group is joined. Ethyl(2-palmitoyloxy) = CCCCCCCCCCCCCCCC(=O)OCC*

What was measured:
[1] = molecular target: T1, CGRP receptor endogenously expressed in SK-N-MC cells (Homo sapiens, UniProt O60894+Q16602); test: Antagonism of CGRP-induced cAMP accumulation in SK-N-MC cells; assay type: cell-based; conditions: human alpha CGRP, mean ± s.e.m (n), read-out: SK-N-MC (pA2) (converted)
T1 construct: SK-N-MC are human neuroblastoma-derived cells that endogenously express a CGRP receptor; endogenous in cells; host or cells: SK-N-MC human neuroblastoma-derived cells
T1 sequence (Q16602 23-461): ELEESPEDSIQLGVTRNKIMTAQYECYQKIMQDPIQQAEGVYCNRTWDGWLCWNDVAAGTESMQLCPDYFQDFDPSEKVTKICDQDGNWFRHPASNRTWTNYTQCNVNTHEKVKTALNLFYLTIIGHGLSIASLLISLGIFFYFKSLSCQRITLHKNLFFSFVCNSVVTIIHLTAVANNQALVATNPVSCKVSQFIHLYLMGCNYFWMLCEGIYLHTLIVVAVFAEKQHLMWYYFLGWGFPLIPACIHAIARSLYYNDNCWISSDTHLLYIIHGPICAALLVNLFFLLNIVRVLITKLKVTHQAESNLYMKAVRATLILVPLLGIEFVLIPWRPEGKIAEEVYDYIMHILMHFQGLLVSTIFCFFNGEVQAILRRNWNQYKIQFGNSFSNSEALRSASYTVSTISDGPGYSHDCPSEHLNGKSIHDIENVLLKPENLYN
T1 sequence (O60894 27-148): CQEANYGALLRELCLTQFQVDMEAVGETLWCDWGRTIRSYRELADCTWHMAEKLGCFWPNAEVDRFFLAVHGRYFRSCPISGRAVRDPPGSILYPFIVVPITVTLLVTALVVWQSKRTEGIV
Experimental: The cells were cultured in DMEM supplemented with 8% heat inactivated fetal bovine serum and kept in a 37° C. humidified 95% air/5% CO2 incubator. […] On the day of experimentation, media was replaced with DMEM containing 1 mM isobutylmethylxanthine and 0.1% bovine serum albumin for 30 min. After this period antagonists were added, followed by human alpha CGRP. Once human alpha CGRP was added, the cells were incubated at 37° C. for 15 minutes. The media was then aspirated from the wells and reactions terminated with ice-cold absolute ethanol. […] Calculation of Antagonist Potency Values Data were analysed using Graphpad Prism 7. Antagonist pKB or pA2 values were obtained using Global Schild analysis. […] Where a single concentration of antagonist was used, pA2 values are used to describe antagonist potency.

[2] = molecular target: T2, CGRP (CLR/RAMP1) receptor (Homo sapiens, UniProt O60894+Q16602); test: Antagonism of CGRP-induced cAMP accumulation in Cos 7 cells transfected with CLR/RAMP1; assay type: cell-based; conditions: transfected Cos-7 cells, cAMP, human alpha CGRP; mean ± s.e.m (n); Global Schild analysis; read-out: Antagonist potency (pKB), CGRP (CLR/RAMP1) (converted)
T2 construct: expressed in transfected cells; host or cells: Cos 7 (African green monkey kidney), transient transfection with polyethylenimine
T2 sequence (Q16602 23-461): as the sequence (Q16602 23-461) above
T2 sequence (O60894 27-148): as the sequence (O60894 27-148) above
Experimental: (§1) 1. Antagonism of CGRP-Induced cAMP Accumulation in Transfected CGRP Receptor Expressing Cells
(§2) Simian vacuolating virus 40 (SV40) transformed African green monkey kidney (Cos 7) cells were transiently transfected with calcitonin receptor-like receptor (CLR) or calcitonin receptor (CTR) together with receptor activity-modifying protein 1 (RAMP1) to form CGRP or AMY1(a) receptors.
(§3) On the day of experimentation, media was replaced with 50 μl DMEM containing 1 mM isobutylmethylxanthine and 0.1% bovine serum albumin for 30 min. All peptides were diluted in assay medium and after the 30 min incubation, 25 μl antagonists were added, followed immediately by 25 μl human alpha CGRP (hαCGRP), giving a total assay volume of 100 μl. Once human alpha CGRP was added, the cells were incubated at 37° C. for 15 minutes. The media was then aspirated from the wells and reactions terminated with ice-cold absolute ethanol. Ethanol was evaporated to dryness and cAMP was quantified using a commercially-available assay (LANCE Perkin Elmer).
(§4) 3. Calculation of Antagonist Potency Values
(§5) Data were analysed using Graphpad Prism 7. Antagonist pKB or pA2 values were obtained using Global Schild analysis. […] Where a single concentration of antagonist was used, pA2 values are used to describe antagonist potency.

[3] = molecular target: T3, AMY1 (CTR/RAMP1) receptor (Homo sapiens, UniProt O60894+P30988); test: Antagonism of CGRP-induced cAMP accumulation in Cos 7 cells transfected with CTR/RAMP1; assay type: cell-based; conditions: transfected Cos-7 cells
T3 construct: expressed in transfected cells; host or cells: Cos 7 (African green monkey kidney), transient transfection with polyethylenimine
T3 sequence (P30988 25-474): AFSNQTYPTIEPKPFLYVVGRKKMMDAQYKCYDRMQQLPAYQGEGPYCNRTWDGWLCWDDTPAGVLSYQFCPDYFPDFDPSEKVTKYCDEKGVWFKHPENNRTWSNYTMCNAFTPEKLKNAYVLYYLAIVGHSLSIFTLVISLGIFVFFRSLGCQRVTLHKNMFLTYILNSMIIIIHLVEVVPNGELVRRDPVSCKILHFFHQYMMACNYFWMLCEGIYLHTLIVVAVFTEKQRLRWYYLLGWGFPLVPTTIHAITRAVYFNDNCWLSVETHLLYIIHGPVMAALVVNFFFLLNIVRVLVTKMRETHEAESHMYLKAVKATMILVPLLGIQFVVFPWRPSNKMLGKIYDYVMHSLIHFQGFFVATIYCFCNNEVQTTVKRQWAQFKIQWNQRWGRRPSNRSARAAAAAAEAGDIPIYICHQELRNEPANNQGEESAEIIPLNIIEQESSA
T3 sequence (O60894 27-148): as the sequence (O60894 27-148) above
Experimental: as §1, §2, §3, §4, §5

[4] = molecular target: T3, AMY1 (CTR/RAMP1) receptor; test: cAMP assay with antagonist pre-incubation, with or without wash step, CTR/RAMP1 transfected Cos 7 cells; assay type: cell-based; conditions: 15 min antagonist pre-incubation, mean ± s.e.m (n)
Experimental: Cos 7 cells were cultured in Dulbecco's Modified Eagle Medium (DMEM) supplemented with 8% heat inactivated fetal bovine serum and kept in a 37° C. humidified 95% air/5% CO2 incubator. […] In a different specific experimental paradigm, media was replaced with DMEM containing 1 mM isobutylmethylxanthine and 0.1% bovine serum albumin for 30 min. After this period, 25 μl of antagonist or media was added for 15 minutes at 37° C. as a pre-incubation period. After pre-incubation, the antagonist or media were aspirated from some wells, washed once with phosphate-buffered saline and replaced with 75 μl new media. The other wells with antagonist were not washed. […] Once human alpha CGRP was added, the cells were incubated at 37° C. for 15 minutes. The media was then aspirated from the wells and reactions terminated with ice-cold absolute ethanol. […] Calculation of Antagonist Potency Values Data were analysed using Graphpad Prism 7. Antagonist pKB or pA2 values were obtained using Global Schild analysis. […] Where a single concentration of antagonist was used, pA2 values are used to describe antagonist potency.

[5] = molecular target: CGRP receptor endogenously expressed by SK-N-MC human neuroblastoma-derived cells (human, UniProt Q16602 23-461; O60894 27-148); test: cell-based or functional assay
Sequence of CGRP receptor endogenously expressed by SK-N-MC human neuroblastoma-derived cells (Q16602 23-461, chain 1 of 2): as the sequence (Q16602 23-461) above
Sequence of CGRP receptor endogenously expressed by SK-N-MC human neuroblastoma-derived cells (O60894 27-148, chain 2 of 2): as the sequence (O60894 27-148) above

[6] = molecular target: T4, human CGRP receptor (CLR/RAMP1), transiently transfected in Cos 7 cells (human, UniProt Q16602 23-461; O60894 27-148); test: cell-based or functional assay
T4 sequence (Q16602 23-461, chain 1 of 2): as the sequence (Q16602 23-461) above
T4 sequence (O60894 27-148, chain 2 of 2): as the sequence (O60894 27-148) above

[7] = molecular target: T4, human CGRP receptor (CLR/RAMP1), …; test: cell-based or functional assay; remark: listed apart in the source
[8] = molecular target: T4, human CGRP receptor (CLR/RAMP1), …; test: cell-based or functional assay; remark: listed apart in the source
[9] = molecular target: human AMY1(a) receptor (CTR/RAMP1), transiently transfected in Cos 7 cells (human), P30988; test: cell-based or functional assay
Sequence of human AMY1(a) receptor (CTR/RAMP1), transiently transfected in Cos 7 cells (human), P30988 (P30988 25-474, chain 1 of 2): as the sequence (P30988 25-474) above
Sequence of human AMY1(a) receptor (CTR/RAMP1), transiently transfected in Cos 7 cells (human), P30988 (O60894 27-148, chain 2 of 2, further chain): as the sequence (O60894 27-148) above

| Molecule | A2 (antilog of the negative pA2; cAMP assay, SK-N-MC) [5] [nM] | antagonist potency pA2 (cAMP assay, SK-N-MC) [5] | A2 (antilog of the negative pA2; cAMP assay, Cos 7) [6] [nM] | Selectivity (fold-difference CGRP vs. AMY1) [6] [fold] | antagonist potency pKB (cAMP assay, Cos 7) [6] | A2, with wash (cAMP assay, Cos 7) [7] [nM] | A2, without wash (cAMP assay, Cos 7) [7] [nM] | antagonist potency pA2, with wash (cAMP assay, Cos 7) [7] | antagonist potency pA2, without wash (cAMP assay, Cos 7) [7] | Fold change reduction in pA2 with wash [8] [fold] | A2 (antilog of the negative pA2; cAMP assay, Cos 7) [9] [nM] | A2, with wash (cAMP assay, Cos 7) [9] [nM] | A2, without wash (cAMP assay, Cos 7) [9] [nM] | Fold change reduction in pA2 with wash [9] [fold] | antagonist potency pA2, with wash (cAMP assay, Cos 7) [9] | antagonist potency pA2, without wash (cAMP assay, Cos 7) [9] | antagonist potency pKB (cAMP assay, Cos 7) [9] | other results |
| --- | --- | --- | --- | --- | --- | --- | --- | --- | --- | --- | --- | --- | --- | --- | --- | --- | --- | --- |
| CCCCCCCCCCCCCCCC(=O)OCCSC[C@H](NC(=O)[C@@H](NC(=O)[C@@H](NC(=O)CNC(=O)CNC(=O)[C@H](CO)NC(=O)[C@H](CCCNC(=N)N)NC(=O)[C@H](CO)NC(=O)[C@H](CC(C)C)NC(=O)[C@H](CC(C)C)NC(=O)CNC(=O)[C@H](C)NC(=O)[C@H](CC(C)C)NC(=O)[C@H](CCCNC(=N)N)NC(=O)[C@H](Cc1c[nH]cn1)NC(=O)[C@@H](NC(=O)[C@@H](N)C(C)C)[C@@H](C)O)C(C)C)C(C)C)C(=O)N[C@@H](CC(N)=O)C(=O)N[C@@H](CC(N)=O)C(=O)N[C@@H](Cc1ccccc1)C(=O)N[C@H](C(=O)N1CCC[C@H]1C(=O)N[C@H](C(=O)N[C@@H](CC(N)=O)C(=O)N[C@H](C(=O)NCC(=O)N[C@@H](CO)C(=O)N[C@@H](CCCCN)C(=O)N[C@@H](C)C(=O)N[C@@H](Cc1ccccc1)C(N)=O)C(C)C)[C@@H](C)O)C(C)C [A5, K24C(S-Pam) CGRP8-37] (H-VTHRLAGLLSRSGGVVC(Ethyl(2-palmitoyloxy))NNFVPTNVGSKAF-NH2) |  |  |  |  |  |  |  |  |  |  |  |  |  |  |  |  |  | Kb [1]: 0.0871 nM; Kb [2]: 6.76 nM; Kb ([3]; human alpha CGRP, mean ± s.e.m (n), read-out: Antagonist potency (pKB), AMY1 (CTR/RAMP1) (converted)): 1.78 nM; Kb ([3]; read-out: A2 (antilog of the negative pA2), AMY1 (CTR/RAMP1) (converted)): 1.8 nM; Kb ([4]; not washed, read-out: pA2, AMY1 (CTR/RAMP1), Without wash (converted)): 0.372 nM; Kb ([4]; washed once with PBS, read-out: pA2, AMY1 (CTR/RAMP1), With wash (converted)): 3.55 nM |
| CVTHRLAGLLSRSGGVVKNNFVPTNVGSKAF (Cys 7 (CGRP numbering; residue 1 of the entry) S-conjugated to 2-(palmitoyloxy)ethyl (S-Pam); C-terminal amide) [7C(S-Pam) CGRP7-37 B1] | 0.02 | 10.7 | 1.7 | < 2 | 8.78 | 0.46 | 0.14 | 9.34 | 9.86 | 3.3 |  |  |  |  |  |  |  |  |
| VTHRLAGLLSRSGGVVC(Ethyl(2-palmitoyloxy))NNFVPTNVGSKAF-NH2 [K24C(S-Pam) CGRP8-37 A5] | 0.09 | 10.1 | 6.8 | -4 | 8.17 | 0.74 | 0.05 | 9.13 | 10.3 | 14 | 1.8 | 3.5 | 0.37 | 9.6 | 8.45 | 9.43 | 8.75 |  |
| C(Ethyl(2-palmitoyloxy))THRLAGLLSRSGGVVKNNFVPTNVGSKAF-NH2 [V8C(S-Pam) CGRP8-37 A4] | 0.02 | 10.8 | 0.59 | 12 | 9.23 | 3.3 | 0.15 | 8.48 | 9.82 | 22 | 7.1 | 2.9 | 1 | 2.8 | 8.54 | 8.98 | 8.15 |  |
